In paper PMC4927293:

Biological target: heat-aggregated GFP

Substance: Hsp104 D484K (from UniProt P31539 1-908) (enzyme)
- apparent KM for aggregated GFP from initial rates of GFP disaggregation by Hsp104 D484K (0.06 uM, 10 mM ATP): fold gain of affinity with Ssa1 (2 uM) and Ydj1 (0.5 uM): > 25 fold
- apparent KM for aggregated GFP from initial rates of GFP disaggregation by Hsp104 D484K (0.06 uM, 10 mM ATP): fold increase of the apparent KM with 1 mM ADP: 2 fold
